Laboratory results taken from paper PMC12274814.

Target: nsP13 helicase (SARS-CoV-2) (UniProt P0DTD1)

## ssDNA-F (25-nt)
  K half: 53 nM
